Test results published in patent US20240368263A1 (PROMETHEUS BIOSCIENCES, published 2024).

Key:
Test in all cases: ELISA, antigen coated at 1 µg/ml, Fab titrated
[1] = target: TRAIL/TNFSF10 (R&D Systems, cat. no. 375-TL/CF) (UniProt P50591 114-281)
Experimental: (§1) Next, all the Fab variants were characterized for their selectivity for human TL1A relative to other TNFSF members TRAIL, LIGHT and Fas. […] The plate was washed 3 times with PBS-T and blocked with 100 μl of 1% BSA/PBS. The block was discarded and the Fab variants or control antibodies (Fas/TNFSF6, R&D Systems, cat. no. AF126; TRAIL/TNFSF10, R&D Systems, cat. no. AF375; LIGHT/TNFSF14, R&D Systems, cat. no. AF664) were titrated in 50 μl 1% BSA/PBS and incubated for 1 h at 25° C. The plate was washed 3 times with PBS-T and secondary HRP-conjugated antibody (diluted 5,000-fold in 1% BSA/PBS) was added for 1 h at 25° C. The plate was washed 3 times with PBS-T and developed.

[2] = target: LIGHT/TNFSF14 (R&D Systems, cat. no. 664-LI/CF) (UniProt O43557 74-240)
Experimental: as §1

[3] = target: T1, Fas/TNFSF6 (R&D Systems, cat. no. 126-FL/CF) (UniProt P48023 134-281)
T1 sequence (looked up): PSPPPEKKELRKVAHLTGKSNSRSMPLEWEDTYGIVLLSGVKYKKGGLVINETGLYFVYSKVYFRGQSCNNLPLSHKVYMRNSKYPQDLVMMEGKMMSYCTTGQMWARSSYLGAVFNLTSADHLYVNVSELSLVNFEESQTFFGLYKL
Experimental: as §1

Measured: binding result

LIGHT/TNFSF14 (R&D Systems, cat. no. 664-LI/CF), sequence (O43557 74-240 limits assumed): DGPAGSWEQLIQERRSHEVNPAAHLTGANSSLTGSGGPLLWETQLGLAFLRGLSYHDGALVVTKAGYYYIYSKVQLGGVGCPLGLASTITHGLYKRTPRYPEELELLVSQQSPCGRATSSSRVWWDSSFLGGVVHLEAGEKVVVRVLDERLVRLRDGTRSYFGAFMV
TRAIL/TNFSF10 (R&D Systems, cat. no. 375-TL/CF), sequence (P50591 114-281 limits assumed): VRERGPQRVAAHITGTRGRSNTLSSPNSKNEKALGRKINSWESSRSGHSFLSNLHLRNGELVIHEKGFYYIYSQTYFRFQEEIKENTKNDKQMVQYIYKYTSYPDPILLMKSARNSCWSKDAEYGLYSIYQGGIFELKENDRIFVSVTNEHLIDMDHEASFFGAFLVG

B1: Clone 2 Fab (Fab, V domains shown)
VH: QVQLVQSGAEVKKPGASVKVSCKASGFDIQDTYMHWVRQAPGQGLEWMGRIEPASGHIKYSPKFQGRVTMTRDTSTSTVYMELSSLRSEDTAVYYCARSGGLPDWWGQGTTVTVSS
VL: EIVLTQSPGTLSLSPGERATLSCRASSSVSYMYWYQQKPGQAPRLLIYATSNLASGIPDRFSGSGSGTDFTLTISRLEPEDFAVYYCQQWEGNPRTFGGGTKLEIK
notes: Fab
no binding: all assays above

B2: Clone 23 Fab (Fab, V domains shown)
VH: QVQLVQSGAEVKKPGASVKVSCKASGFDIQDTYMHWVRQAPGQGLEWMGRIDPASGHLKYDPKFQNRVTMTRDTSTSTVYMELSSLRSEDTAVYYCARSGGLPDKWGQGTTVTVSS
VL: EIVLTQSPGTLSLSPGERATLSCRASSSVSYMYWYQQKPGQAPRLLIYATSNLASGIPDRFSGSGSGTDFTLTISRLEPEDFAVYYCQQWEGNPRTFGGGTKLEIK
notes: Fab; also called variant 23
no binding: all assays above

B3: Clone 47 Fab (Fab, V domains shown)
VH: QVQLVQSGAEVKKPGASVKVSCKASGFDIQDTYMHWVRQAPGQGLEWMGRIEPASGHVKYDPKFQTRVTMTRDTSTSTVYMELSSLRSEDTAVYYCARSGGLPDWWGQGTTVTVSS
VL: EIVLTQSPGTLSLSPGERATLSCRASSSVSYMYWYQQKPGQAPRLLIYATSNLASGIPDRFSGSGSGTDFTLTISRLEPEDFAVYYCQQWEGNPRTFGGGTKLEIK
notes: Fab; also called variant 47
no binding: all assays above

B4: Clone 46 Fab (Fab, V domains shown)
VH: QVQLVQSGAEVKKPGASVKVSCKASGFDIQDTYMHWVRQAPGQGLEWMGRIEPASGHVKYSPKFQVRVTMTRDTSTSTVYMELSSLRSEDTAVYYCARSGGLPDWWGQGTTVTVSS
VL: EIVLTQSPGTLSLSPGERATLSCRASSSVSYMYWYQQKPGQAPRLLIYATSNLASGIPDRFSGSGSGTDFTLTISRLEPEDFAVYYCQQWEGNPRTFGGGTKLEIK
notes: Fab
no binding: all assays above

B5: Clone 34 Fab (Fab, V domains shown)
VH: QVQLVQSGAEVKKPGASVKVSCKASGFDIQDTYMHWVRQAPGQGLEWMGRIEPASGHIKYDPKFQGRVTMTRDTSTSTVYMELSSLRSEDTAVYYCARSGGLPDWWGQGTTVTVSS
VL: EIVLTQSPGTLSLSPGERATLSCRASSSVSYMYWYQQKPGQAPRLLIYATSNLASGIPDRFSGSGSGTDFTLTISRLEPEDFAVYYCQQWEGNPRTFGGGTKLEIK
notes: Fab; also called variant 34
no binding: all assays above

B6: Clone 14 Fab (Fab, V domains shown)
VH: QVQLVQSGAEVKKPGASVKVSCKASGFDIQDTYMHWVRQAPGQGLEWMGRIDPASGHIKYDPKFQKRVTMTRDTSTSTVYMELSSLRSEDTAVYYCARSGGLPDMWGQGTTVTVSS
VL: EIVLTQSPGTLSLSPGERATLSCRASSSVSYMYWYQQKPGQAPRLLIYATSNLASGIPDRFSGSGSGTDFTLTISRLEPEDFAVYYCQQWQGNPRTFGGGTKLEIK
notes: Fab; also called variant 14
no binding: all assays above

B7: Clone 17L Fab (Fab, V domains shown)
VH: QVQLVQSGAEVKKPGASVKVSCKASGFDIQDTYMHWVRQAPGQGLEWMGRIDPASGHLKYDPKFQVRVTMTRDTSTSTVYMELSSLRSEDTAVYYCARSGGLPDMWGQGTTVTVSS
VL: EIVLTQSPGTLSLSPGERATLSCRASSSVSYMYWYQQKPGQAPRLLIYATSNLASGIPDRFSGSGSGTDFTLTISRLEPEDFAVYYCQQWQGNPRTFGGGTKLEIK
notes: Fab
no binding: all assays above
